These are literature values, as cited in article PMC10167482.

One data set deals with IFNAR2 (Homo sapiens) (UniProt P48551).
The target of another data set is IFNAR1 (Homo sapiens) (UniProt P17181).
UniProt P17181, sequence (P17181 28-436): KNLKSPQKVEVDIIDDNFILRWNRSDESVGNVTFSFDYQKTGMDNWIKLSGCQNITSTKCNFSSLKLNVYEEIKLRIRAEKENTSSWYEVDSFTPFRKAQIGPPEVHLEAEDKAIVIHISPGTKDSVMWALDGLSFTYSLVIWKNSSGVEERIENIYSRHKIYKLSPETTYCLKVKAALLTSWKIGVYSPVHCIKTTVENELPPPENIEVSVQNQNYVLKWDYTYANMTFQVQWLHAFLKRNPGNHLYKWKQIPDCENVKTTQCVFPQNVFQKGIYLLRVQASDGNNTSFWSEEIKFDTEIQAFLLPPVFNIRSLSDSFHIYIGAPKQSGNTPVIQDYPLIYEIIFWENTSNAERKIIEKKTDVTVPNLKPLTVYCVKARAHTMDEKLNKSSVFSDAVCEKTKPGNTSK

UniProt P48551, sequence (P48551 27-243): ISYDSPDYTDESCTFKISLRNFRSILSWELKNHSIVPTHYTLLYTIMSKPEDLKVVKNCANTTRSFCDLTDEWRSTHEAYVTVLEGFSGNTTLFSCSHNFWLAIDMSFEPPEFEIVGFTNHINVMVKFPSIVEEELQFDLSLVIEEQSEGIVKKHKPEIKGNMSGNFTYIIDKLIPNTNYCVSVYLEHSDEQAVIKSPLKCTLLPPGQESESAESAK

On to IFN-β (from UniProt P01574), for which the Kd (in general, the equilibrium constant for the complex coming apart) with IFNAR2 (Homo sapiens) was 0.2 nM; in the data set with IFNAR1 (Homo sapiens) it was 50 nM.
